Source: paper PMC6957250 (Experimental and molecular pathology, 2016)
Where two headings read alike, the source gives them in different places.

B1: antibody domain E11 (VHH)
VH: EVQLVESGGGLVQPGGSLRLSCAASGFTFSSYGMSWVRQAPGKGLEWIGEVNHSGGSTNYNPSLKGSFVISRDNSKNTLYLQMNSLAEDTAVYYCARVGSFDFWGQGTLVTVSS
B2: antibody domain D6 (VHH)
VH: EVQLVESGGGLVQPGGSLRLSCAASGFTFSNYGMSWVRQAPGKGLEWIGSIYYSGGSTNYNPSLKGSLVISRDNSKNTLYLQMNSLAEDTATYYCARESIDYWGQGTLVTVSS

What was measured:
Assay in all cases: ELISA
[1] = biological target: recombinant CD32B ectodomain (Homo sapiens (assumed), UniProt P31994)
recombinant CD32B ectodomain, sequence (P31994 43-217): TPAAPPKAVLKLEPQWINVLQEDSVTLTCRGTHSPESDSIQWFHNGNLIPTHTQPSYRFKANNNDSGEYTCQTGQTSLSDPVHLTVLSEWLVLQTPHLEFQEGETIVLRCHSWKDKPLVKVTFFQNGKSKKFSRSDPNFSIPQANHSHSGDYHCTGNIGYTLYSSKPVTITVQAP

[2] = biological target: recombinant CD16B ectodomain (Homo sapiens, UniProt O75015)
recombinant CD16B ectodomain, sequence (O75015 whole entry, looked up, the tested form may be a part): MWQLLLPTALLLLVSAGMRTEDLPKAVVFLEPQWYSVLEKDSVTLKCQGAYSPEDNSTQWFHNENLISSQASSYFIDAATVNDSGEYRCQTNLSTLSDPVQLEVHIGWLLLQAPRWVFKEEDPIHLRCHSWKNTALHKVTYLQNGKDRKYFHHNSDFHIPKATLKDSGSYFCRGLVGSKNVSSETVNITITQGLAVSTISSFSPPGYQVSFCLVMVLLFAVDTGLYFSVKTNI

[3] = biological target: recombinant CD64A ectodomain (Homo sapiens (assumed), UniProt P12314)
recombinant CD64A ectodomain, sequence (P12314 16-292): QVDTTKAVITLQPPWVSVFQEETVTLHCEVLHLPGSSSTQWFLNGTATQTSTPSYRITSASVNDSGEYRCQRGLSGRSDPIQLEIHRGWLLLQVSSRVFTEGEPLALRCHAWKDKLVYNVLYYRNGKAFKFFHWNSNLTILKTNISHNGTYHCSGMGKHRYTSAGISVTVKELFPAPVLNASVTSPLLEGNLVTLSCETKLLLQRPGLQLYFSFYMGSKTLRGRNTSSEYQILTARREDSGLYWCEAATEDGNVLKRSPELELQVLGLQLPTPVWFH

[4] = biological target: recombinant CD32A ectodomain (Homo sapiens (assumed), UniProt P12318)
recombinant CD32A ectodomain, sequence (P12318 34-217): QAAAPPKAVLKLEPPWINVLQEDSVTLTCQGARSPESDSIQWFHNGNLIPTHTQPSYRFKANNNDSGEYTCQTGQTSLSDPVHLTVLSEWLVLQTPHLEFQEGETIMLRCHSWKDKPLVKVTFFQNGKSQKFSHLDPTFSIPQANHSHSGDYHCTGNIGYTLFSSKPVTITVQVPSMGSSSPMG

[5] = biological target: T1, recombinant CD16A-mFc (CD16A-158V extracellular domain fused to monomeric Fc) (Homo sapiens, allotype 158V, UniProt P08637, strain)
T1 sequence (P08637 17-208, change not shown): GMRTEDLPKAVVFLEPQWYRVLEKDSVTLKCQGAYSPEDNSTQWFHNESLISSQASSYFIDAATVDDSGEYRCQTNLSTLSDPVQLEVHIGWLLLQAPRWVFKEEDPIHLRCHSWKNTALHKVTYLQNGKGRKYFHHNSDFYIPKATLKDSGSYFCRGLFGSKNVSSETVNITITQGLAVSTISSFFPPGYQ

[6] = biological target: CD16A-158F-mFc (CD16A carrying the 158F isoform, monomeric Fc fusion) (Homo sapiens, allotype 158F, UniProt P08637)
CD16A-158F-mFc (CD16A carrying the 158F isoform, monomeric Fc fusion), sequence (P08637 17-208): as the sequence (P08637 17-208, change not shown) above

[7] = biological target: T1, recombinant CD16A-mFc (CD16A-158V …); remark: listed apart in the source

Binder | binding result [1] | binding result [2] | binding result [3] | binding result [4] | EC50 [5] [nM] | binding result [6] | EC50 [7] [nM]
B1 | no binding | no binding | no binding | no binding | 8 | binds | –
B2 | no binding | no binding | no binding | no binding | 4 | binds | ~60
